# Square brackets hold non-standard residues; d marks the D form. Ends that are not written are not given here. 2Nal = N[C@@H](Cc1ccc2ccccc2c1)C(=O)O; d2Nal = N[C@H](Cc1ccc2ccccc2c1)C(=O)O; 2Thi = N[C@@H](Cc1cccs1)C(=O)O; Cha = N[C@@H](CC1CCCCC1)C(=O)O; d2Thi = N[C@H](Cc1cccs1)C(=O)O; dCha = N[C@H](CC1CCCCC1)C(=O)O
# B1: TPI 1352-66 (peptide)
# peptide: [2Nal][dCha]W[dW]
# B2: TPI 1352-6 (peptide)
# peptide: A[dW]W[2Thi]
# B3: TPI 1332-41 (peptide)
# peptide: [Cha][d2Nal]W[2Thi]
# B4: TPI 1332/1352-47 (peptide)
# peptide: A[dW]W[2Thi]
# B5: TPI 1352-72 (peptide)
# peptide: [2Nal][d2Thi][dF][dW]
# B6: TPI 1332/1352-1 (peptide)
# peptide: AWW[2Thi]
# modifications: also: some Trp may retain formyl protecting groups
# Target: GST-XIAP (human, UniProt P98170 1-497)
# Sequence (P98170 whole entry): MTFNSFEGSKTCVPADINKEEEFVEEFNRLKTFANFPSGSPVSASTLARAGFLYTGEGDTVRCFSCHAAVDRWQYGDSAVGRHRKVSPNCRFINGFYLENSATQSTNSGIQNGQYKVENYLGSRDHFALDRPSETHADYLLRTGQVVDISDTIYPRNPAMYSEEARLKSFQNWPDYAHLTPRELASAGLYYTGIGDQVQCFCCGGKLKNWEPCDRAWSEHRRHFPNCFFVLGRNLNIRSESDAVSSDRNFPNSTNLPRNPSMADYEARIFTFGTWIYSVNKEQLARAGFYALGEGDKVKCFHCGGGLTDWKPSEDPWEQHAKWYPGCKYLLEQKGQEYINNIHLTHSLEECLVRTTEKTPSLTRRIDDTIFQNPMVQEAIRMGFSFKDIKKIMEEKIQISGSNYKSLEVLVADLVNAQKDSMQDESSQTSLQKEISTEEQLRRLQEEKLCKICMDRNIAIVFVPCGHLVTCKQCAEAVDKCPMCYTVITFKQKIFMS
# Experiment: cell-based or functional assay
row,Molecule,"ratio of Vmax with and without peptide, caspase derepression assay"
1,B1,> 2.4
2,B2,> 2.4
3,B3,> 2.4
4,B4,> 2.4
5,B5,> 2.4
6,B6,> 2.4

# Target: GST-BIR3RING (human) (UniProt P98170)
# Sequence (P98170 243-497): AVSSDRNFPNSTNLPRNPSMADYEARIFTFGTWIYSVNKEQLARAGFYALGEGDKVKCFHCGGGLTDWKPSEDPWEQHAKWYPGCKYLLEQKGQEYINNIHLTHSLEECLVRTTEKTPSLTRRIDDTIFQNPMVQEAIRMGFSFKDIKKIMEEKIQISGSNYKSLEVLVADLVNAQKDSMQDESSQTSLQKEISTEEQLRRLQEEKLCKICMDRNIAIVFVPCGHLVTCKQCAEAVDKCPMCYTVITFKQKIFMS
# Experiment: fluorescence polarization competition; unlabeled SMAC 0 to 50 µM against 400 nM rhodamine-SMAC and 1 µM GST-BIR3RING
row,Molecule,IC50
1,unlabelled SMAC (peptide),21 µM

# From patent publication US20060211627A1 (BURNHAM INSTITUTE, published 2006)
